Drawing on the RNAGym collection of RNA variant scans (doi:10.7554/elife.80360), this text covers self-cleavage for 167 variants.

Sequences and labels used below:
B1: CPEB3 Ribozyme (parent)
chain: GGGGGCCACAGCAGAAGCGUUCACGUCGCGGCCCCUGUCAGAUUCUGGUGAAUCUGCGAAUUCUGCUGU

In this series the parent is B1. As to the kind of experiment: self-cleavage, relative activity (ratio to wild type); higher = more cleavage; co-transcriptional.
With A8G A52G, the self-cleavage came out at 0.902. Then A8G A15C, with 0.0691; and A8G A15U, with 0.144; and A8G A13U, with 0.0712. In the case of A8C U64C it was 0.86; in that of A8C U64G, 0.892. Take A8C U20A: the self-cleavage was 0.114. On to A8C U20C, for which the self-cleavage turned out to be 0.166.

Take A8G G11A: the self-cleavage is 0.26. As to A8G G11C, the self-cleavage was 0.0914.

With A8G G11U, the self-cleavage was 0.189.

Consider A8G C12G, for which the self-cleavage is 0.133. A8G C12U: the self-cleavage was 0.444. In the case of A8G C12A, the self-cleavage was 0.175. In the case of A8C C39G it was 0.927; in that of A8C C39A, 0.848.

As for A8C C39U, the self-cleavage is 0.947. On to A8G G28C, for which the self-cleavage came out at 0.102. Consider A8G G28A, for which the self-cleavage is 0.0955. Consider A8G G28U, for which the self-cleavage came out at 0.137. On to A8G U36A, for which the self-cleavage stood at 0.135. For the variant A8U A16C, the self-cleavage is 0.309.

As to A8U A16G, the self-cleavage came out at 0.947.

Consider A8U A16U, for which the self-cleavage is 0.867. Consider A8C C54U, for which the self-cleavage amounted to 1. With A8C C54G, the self-cleavage stood at 0.876. Consider A8C A59U, for which the self-cleavage stood at 0.821. Regarding A8C A59G, the self-cleavage is 1. For A8G C32A, the self-cleavage worked out at 0.701. For the variant A8C C45U, the self-cleavage was determined as 1.04. A8C C45A: the self-cleavage was 1.01. Regarding A8G G37C, the self-cleavage was 0.123. Turning to A8U A23U, the self-cleavage was found to be 1. Then A8U A23G, with 0.965. A8U C33G: the self-cleavage came to 0.685. As for A8C C35G, the self-cleavage amounted to 0.421. In the case of A8C C35U, the self-cleavage was found to be 0.976.

For the variant A8C C32U, the self-cleavage was 0.954.

Regarding A8C C32G, the self-cleavage amounted to 0.227. In the case of A8C G58A it was 0.944. For the variant A8U G41C, the self-cleavage turned out to be 0.809. With A8U G41U, the self-cleavage was found to be 0.877.

Regarding A8G A10U, the self-cleavage is 0.69.

On to A8U A51U, for which the self-cleavage was found to be 0.999. With A8U A51G, the self-cleavage is 1. Then A8U G48C, with 0.994; and A8U G48A, with 1.03. As to A8G C35G, the self-cleavage turned out to be 0.341. Take A8G C35A: the self-cleavage was 0.217. In the case of A8G U69G, the self-cleavage is 1.04.

Regarding A8G G41A, the self-cleavage stood at 0.222. A8G G41C: the self-cleavage was 0.304.

On to A8G G41U, for which the self-cleavage worked out at 0.254.

Turning to A8C U46A, the self-cleavage amounted to 0.981. Then A8C U46C, with 0.979. Take A8C C12G: the self-cleavage was 0.798. On to A8C C12U, for which the self-cleavage amounted to 0.981. For A8U C18A, the self-cleavage came to 0.177. Consider A8U C18G, for which the self-cleavage came out at 0.142.

Turning to A8C U62C, the self-cleavage is 0.841. For A8C U62G, the self-cleavage stood at 0.9. As for A8C U62A, the self-cleavage was found to be 0.898.

For the variant A8G U67C, the self-cleavage is 0.573. For A8G U67G, the self-cleavage amounted to 0.64. Consider A8C G68C, for which the self-cleavage was found to be 1. In the case of A8C G68U, the self-cleavage came out at 1.02. In the case of A8U G37U it was 0.221; in that of A8U G37A, 0.215; in that of A8G U38C, 0.696.

For the variant A8G C63U, the self-cleavage turned out to be 0.612.

On to A8G C63A, for which the self-cleavage stood at 0.253. As to A8G C63G, the self-cleavage is 0.164. On to A8C U55G, for which the self-cleavage was determined as 0.851. On to A8C U55A, for which the self-cleavage turned out to be 0.969. As to A8C G30A, the self-cleavage was determined as 0.951. Turning to A8C G30C, the self-cleavage stood at 0.758. Then A8C G30U, with 0.492; and A8U G47C, with 1.03; and A8U G47A, with 1.01. Consider A8U G47U, for which the self-cleavage worked out at 0.999. As for A8U G17U, the self-cleavage worked out at 0.491.

With A8U G17C, the self-cleavage stood at 0.141.

Take A8C G14C: the self-cleavage came to 0.528. As to A8C G14A, the self-cleavage worked out at 0.669.

A8C C27A: the self-cleavage worked out at 0.555. Regarding A8C C27G, the self-cleavage came out at 0.112. With A8U C12A, the self-cleavage stood at 0.683.

On to A8U C12G, for which the self-cleavage came out at 0.897.

With A8U C9U, the self-cleavage is 1.02.

In the case of A8U C9G, the self-cleavage stood at 1.01. On to A8G A40C, for which the self-cleavage was 0.103. Consider A8G A40G, for which the self-cleavage is 0.723.

As for A8G A40U, the self-cleavage worked out at 0.333. Then A8U C54G, with 0.919. In the case of A8U C54A, the self-cleavage came out at 0.857.

As to A8U C54U, the self-cleavage is 1.03. Consider A8C C18U, for which the self-cleavage was 0.88.

A8C C18G: the self-cleavage is 0.186.

Turning to A8C U61C, the self-cleavage worked out at 0.776. On to A8C U61G, for which the self-cleavage amounted to 0.937. Then A8G G56A, with 0.562. Then A8G G56U, with 0.446.

With A8G G56C, the self-cleavage amounted to 0.233.

In the case of A8G A16U, the self-cleavage is 0.457. Take A8U A52G: the self-cleavage amounted to 1.03. Take A8U A52U: the self-cleavage turned out to be 0.986. A8G C29U: the self-cleavage is 0.761. For the variant A8G C29G, the self-cleavage stood at 0.496.

With A8G C29A, the self-cleavage is 0.647. Regarding A8G G68C, the self-cleavage is 0.851. Then A8G G68U, with 0.841.

On to A8G G68A, for which the self-cleavage is 0.912. Regarding A8G C57A, the self-cleavage is 0.126. On to A8G C57G, for which the self-cleavage was determined as 0.203.

Take A8G U49C: the self-cleavage turned out to be 0.828. In the case of A8G U49G, the self-cleavage is 0.895. Then A8G U49A, with 0.938; and A8C U44C, with 0.896.

For the variant A8C U44A, the self-cleavage amounted to 0.944. Consider A8U U20C, for which the self-cleavage is 0.25. In the case of A8U U20A it was 0.116; in that of A8U U20G, 0.163.

As to A8G A60U, the self-cleavage came to 0.25.

In the case of A8G A60G, the self-cleavage was determined as 0.393. Take A8U C63A: the self-cleavage was found to be 0.891. Take A8U C45U: the self-cleavage stood at 1.03. Then A8C C29A, with 0.532; and A8C G47A, with 1.02; and A8U C32G, with 0.368.

On to A8U C32A, for which the self-cleavage was 0.877. With A8U C32U, the self-cleavage is 0.944. For the variant A8C C24G, the self-cleavage stood at 0.488. Consider A8C C24U, for which the self-cleavage amounted to 0.753. For the variant A8C C57G, the self-cleavage came to 0.446.

Take A8C C57U: the self-cleavage was determined as 0.357. Take A8C C57A: the self-cleavage came out at 0.352. As to A8G A51C, the self-cleavage was 0.706. Regarding A8U C66G, the self-cleavage was 0.826. As to A8G G14U, the self-cleavage is 0.0849. Turning to A8G G14A, the self-cleavage turned out to be 0.13. A8G G14C: the self-cleavage stood at 0.125. In the case of A8G G50C it was 0.791; in that of A8C G25C, 0.113; in that of A8C G25A, 0.148. In the case of A8G G48U, the self-cleavage is 0.943. Regarding A8G G48A, the self-cleavage stood at 0.939. A8U C35A: the self-cleavage stood at 0.257. As to A8U C35U, the self-cleavage amounted to 1.01. In the case of A8G A23G it was 0.623; in that of A8G A23U, 0.858. A8C G31U: the self-cleavage stood at 0.664.

Consider A8C G31C, for which the self-cleavage came to 0.267. Regarding A8C U53A, the self-cleavage is 0.919.

Turning to A8C U53G, the self-cleavage was determined as 0.89. On to A8C U53C, for which the self-cleavage was 0.902.

As for A8G U46A, the self-cleavage was 0.99. Take A8G U46G: the self-cleavage stood at 0.86.

With A8G U46C, the self-cleavage was found to be 0.83. Then A8U G56A, with 0.957. Then A8U G56U, with 0.972; and A8U C34A, with 0.854; and A8U C34U, with 0.985. Then A8U C34G, with 0.718. On to A8U C24U, for which the self-cleavage came out at 0.713. As to A8U C24G, the self-cleavage came out at 0.444. In the case of A8U C24A, the self-cleavage is 0.763. On to A8G U53G, for which the self-cleavage was 0.646.
